No end group written: not given here.

For test [1], the target named is 14C-HIgG (human). Put plainly: secondary screening, batch, HIgG competitive (spiked in MEM).
In test [2] the target is 14C-Fc fragment of HIgG (human). In words: secondary screening, batch, Fc fragment non-competitive (PBS).
The target of test [3] is 14C-HIgG (human). Put plainly: secondary screening, batch, HIgG non-competitive (PBS), Micro-BCA.
For test [4], the target named is 14C-Fc fragment of HIgG (human). Put plainly: secondary screening, batch, Fc fragment competitive (spiked in MEM).
Test [5] addresses 14C-HIgG (human). In words: second round of secondary screening, batch, competitive (MEM), 14C counting.
Test [6] deals with Human IgG (HIgG) (human). In words: batch adsorption isotherm, PBS pH 7.4, peptide resin 0.1 meq/g, direct Langmuir fit.
The target in test [7] is 14C-HIgG (human). In words: second round of secondary screening, batch, non-competitive (PBS).
For test [8], the target named is Human IgG (HIgG) (human). Put plainly: ratio of ligand to protein at maximum capacity, HWRGWV resin at 0.10 mmol/g.
In test [9] the target is Human IgG (HIgG) (human). In words: ratio of ligand to protein at maximum capacity, HWRGWV resin at 0.22 mmol/g.
For test [10], the target named is Human IgG (HIgG) (human). In words: ratio of ligand to protein at maximum capacity, HWRGWV resin at 0.55 mmol/g.
Test [11] deals with Human IgG (HIgG) (human). Put plainly: ratio of ligand to protein at maximum capacity, HWRGWV resin at 0.022 mmol/g.
For test [12], the target named is Human IgG (HIgG) (human). Put plainly: ratio of ligand to protein at maximum capacity, HWRGWV resin at 0.040 mmol/g.
The target of test [13] is Human IgG (HIgG) (human). In words: ratio of ligand to protein at maximum capacity, HWRGWV resin at 0.080 mmol/g.
Test [14] addresses Human IgG (HIgG) (human). In words: batch adsorption isotherm, PBS pH 7.4, HWRGWV resin at 0.10 mmol/g, Langmuir fit.
Test [15] addresses Human IgG (HIgG) (human). Put plainly: batch adsorption isotherm, PBS pH 7.4, HWRGWV resin at 0.22 mmol/g, Langmuir fit.
Test [16] has as its target Human IgG (HIgG) (human). In words: batch adsorption isotherm, PBS pH 7.4, HWRGWV resin at 0.55 mmol/g, Langmuir fit.
For test [17], the target named is Human IgG (HIgG) (human). Put plainly: batch adsorption isotherm, PBS pH 7.4, HWRGWV resin at 0.022 mmol/g, Langmuir fit.
For test [18], the target named is Human IgG (HIgG) (human). Put plainly: batch adsorption isotherm, PBS pH 7.4, HWRGWV resin at 0.040 mmol/g, Langmuir fit.
Test [19] deals with Human IgG (HIgG) (human). In words: batch adsorption isotherm, PBS pH 7.4, HWRGWV resin at 0.080 mmol/g, Langmuir fit.
The target in test [20] is Human IgG (HIgG) (human). Put plainly: batch adsorption isotherm, PBS pH 7.4, peptide resin 0.1 meq/g, double reciprocal curve.
Test [21] deals with Human IgG (HIgG) (human). In words: ratio of ligand to protein at maximum capacity, Ac-HWRGWV resin at 0.080 mmol/g.
In test [22] the target is Human IgG (HIgG) (human). In words: batch adsorption isotherm, PBS pH 7.4, Ac-HWRGWV resin at 0.080 mmol/g, Langmuir fit.

Regarding HRPKIF (peptide), the Bound % in test [1] is 4.51%; in test [2] it was 21.5%; in test [3], 11.2%; in test [4] it was 24.5%.

In test [5], HFRRHLA-{Toyopearl AF‑Amino‑650 resin} yielded a Bound of 40.9% and an Unbound of 59.1%. Also, in test [6], the Kd (commonly the concentration at which binding is half-saturated) was determined as 26.4 µM and the qm (maximum capacity) came out at 158 mg/g.

Regarding HYGLGWA-{Toyopearl AF‑Amino‑650 resin}, the Bound % in test [1] was found to be 14.5%; in test [2] it was 19.8%; in [3] it was 17.9%; in test [4], 4.91%.

For the molecule HIQLDGA-{Toyopearl AF‑Amino‑650 resin}, in test [5], the Bound was determined as 10% and the Unbound was determined as 90%.

On to KLQWVHA-{Toyopearl AF‑Amino‑650 resin}, for which, in test [5], the Bound turned out to be 12.2% and the Unbound was 87.8%.

With HYFKFDA-{Toyopearl AF‑Amino‑650 resin}, in test [7], the Bound was 69.3% and the Unbound was found to be 30.7%. Besides, in test [5], the Bound amounted to 43.3% and the Unbound worked out at 56.7%. Besides, in test [6], the Kd is 11.4 µM and the qm (maximum capacity) is 127 mg/g.

Take HWRGWVA-{Toyopearl AF‑Amino‑650 resin}: the Bound % was determined as 24.4% in test [1], 82.5% in [2], 62.2% in test [3] and 8.13% in test [4]. The peptide/protein, mol/mol is 112 mol/mol in test [8]; 241 mol/mol in test [9]; 600 mol/mol in [10]; 21 mol/mol in test [11]; 41 mol/mol in test [12]; 91 mol/mol in test [13]. For the same molecule, the Kd in test [14] amounted to 10.4 µM; in test [15] it was 2.58 µM; in test [16], 0.947 µM; in test [17], 30 µM; in test [18] it was 20.3 µM; in [19] it was 7.25 µM. Further, the Kd in test [6] amounted to 1.33 µM; in test [20], 2.8 µM. The qm (maximum capacity) in [14] amounted to 134 mg/g; in test [15] it was 137 mg/g; in [16], 138 mg/g; in test [17], 158 mg/g; in test [18] it was 148 mg/g; in test [19] it was 132 mg/g. Also, the qm (maximum capacity) in test [6] was found to be 50 mg/g; in test [20], 54.8 mg/g.

For the molecule HEILYWA-{Toyopearl AF‑Amino‑650 resin}, the Bound % in test [1] amounted to 5.5%; in [2] it was 18%; in [3] it was 9.16%; in test [4], 3.2%.

As for WHWRKRA-{Toyopearl AF‑Amino‑650 resin}, the Bound % in [1] was 10.9%; in test [2] it was 88.2%; in test [3], 66.2%; in test [4], 16.5%. In addition, the values for the Kd in [6] and in [20] were 1.39 µM and 2.47 µM, respectively. The values for the qm (maximum capacity) in [6] and in test [20] were 62.4 mg/g and 81.9 mg/g, respectively.

In [5], HPWYVTA-{Toyopearl AF‑Amino‑650 resin} showed a Bound of 27% and an Unbound of 73%.

In the case of HLKWYAA-{Toyopearl AF‑Amino‑650 resin}, in test [5], the Bound amounted to 23.5% and the Unbound is 76.5%.

In [5], HVWQLKA-{Toyopearl AF‑Amino‑650 resin} yielded a Bound of 15.1% and an Unbound of 85%.

Regarding YYWLHHA-{Toyopearl AF‑Amino‑650 resin}, the Bound % was 41.9% in [1], 40.4% in test [2], 91.3% in [3] and 8.85% in [4]. The values for the Kd in test [6] and in test [20] were 0.297 µM and 0.215 µM, respectively. Further, the values for the qm (maximum capacity) in [6] and in test [20] were 113 mg/g and 95.1 mg/g, respectively.

In test [7], HWIDPLA-{Toyopearl AF‑Amino‑650 resin} gave a Bound of 9.03% and an Unbound of 91%. In test [5], the Bound was 19.9% and the Unbound is 80.1%.

As to Ac-HWRGWVA-{Toyopearl AF‑Amino‑650 resin} [Ac-HWRGWV], the peptide/protein, mol/mol in test [21] amounted to 92 mol/mol. In addition, in [22], the Kd turned out to be 3.8 µM and the qm (maximum capacity) was 131 mg/g.

For HIWA-{Toyopearl AF‑Amino‑650 resin}, the Bound worked out at 7.9% in [7] and 12.9% in [5]. For the same molecule, the Unbound in [7] turned out to be 92.1%; in test [5], 87.1%.

For HYIDAKA-{Toyopearl AF‑Amino‑650 resin}, in test [5], the Bound is 8.64% and the Unbound was determined as 91.4%.

In [5], HDVFHTA-{Toyopearl AF‑Amino‑650 resin} yielded a Bound of 8.55% and an Unbound of 91.5%.

In test [7], HWGPTKA-{Toyopearl AF‑Amino‑650 resin} showed a Bound of 14.4% and an Unbound of 85.6%. In test [5], this molecule gave a Bound of 19.9% and an Unbound of 80.1%.

Regarding HANGFLA-{Toyopearl AF‑Amino‑650 resin}, the Bound % was 5.58% in test [1], 10.2% in test [2], 10.5% in test [3] and 25.6% in test [4].

In test [7], HVHYYWA-{Toyopearl AF‑Amino‑650 resin} displayed a Bound of 55.5% and an Unbound of 44.5%. In [5], this molecule came in with a Bound of 43.3% and an Unbound of 56.7%. In addition, in test [6], the Kd was 20.3 µM and the qm (maximum capacity) is 129 mg/g.

In the case of KRGFYYA-{Toyopearl AF‑Amino‑650 resin}, in [5], the Bound was determined as 17.3% and the Unbound came to 82.7%.

In the case of HFDKGFA-{Toyopearl AF‑Amino‑650 resin}, the Bound % turned out to be 6.01% in test [1], 12.9% in test [2], 10.7% in test [3] and 4.28% in test [4].

On to KGEA-{Toyopearl AF‑Amino‑650 resin}, for which, in [7], the Bound came to 6.08% and the Unbound is 93.9%. For the same molecule, in test [5], the Bound was found to be 7.34% and the Unbound was 92.7%.
